What was measured:
[1] = system: MAE3F2T cells; assay: Effect on FGF-2 dependent autocrine proliferation of MAE3F2T cells; format: cell-based, murine; settings: 72 h in 0.4% FCS; PTX3 70 nM, suramin 50 μg/ml, anti FGF-2 antibodies; cell counting
Procedure: In this experiment we have investigated the effect of PTX3 on the proliferation of the murine aortic endothelial cell line MAE3F2T stably transfected with an expression vector coding for FGF-2 (Gualandris et al. 1996, Cell Growth Diff. 7:147-60). These cells can proliferate in response to a autocrine loop of stimulation induced by endogenous FGF-2 (Gualandris et al. 1996, Cell Growth Diff. 7:14760). MAE3F2T cells were seeded at 10,000/cm^2 in 48-well plates in Dulbecco medium (DMEM) added with 10% FCS. After 24 h at 37° C., adherent cells were washed twice with DMEM without FCS and incubated for 72 at 37° C. in DMEM containing 0.4% FCS in the presence or not of PTX3 (70 nM), anti FGF-2 specific antibodies or suramin (50 μg/ml). Suramin is known for its capacity to sequestrate extracellular FGF-2 and inhibits its biological activities (Rusnati et al., 1996, Mol. Biol. Cell. 7:369-381). At the end of incubation cells were trypsinized and counted in a Burker chamber.

[2] = target: T1, FGF-2 (Homo sapiens, UniProt P09038); assay: 125I-FGF-2 binding to plastic immobilised proteins; settings: wells coated with 200 nM PTX3 or CRP or 2 μg/ml control proteins, 30 ng 125I-FGF-2, 2 h room temperature
T1 construct: made in house
T1 sequence (P09038 134-288): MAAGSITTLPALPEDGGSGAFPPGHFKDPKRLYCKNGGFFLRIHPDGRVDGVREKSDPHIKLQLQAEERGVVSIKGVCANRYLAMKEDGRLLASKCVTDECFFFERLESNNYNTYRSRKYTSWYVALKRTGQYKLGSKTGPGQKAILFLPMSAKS
Procedure: (§1) 96 wells plates were coated at 4° C. with 100 μl of NaHCO3 pH 9.6 containing PTX3 or C reactive protein (200 nM) or alternatively 2 μg/ml of the following proteins used as negative control: bovine serum albumin, fibronectin, gelatine or laminin. After incubation, wells were washed 3 times with PBS and blocked 2 h at room temperature with 200 μl of 1 mg/ml of BSA in PBS. At the end of incubation wells were washed 3 times with PBS and subsequently incubated with 30 ng of ^125I-FGF-2 for 2 h at room temperature. Wells were subsequently washed 3 times with PBS and bound ^125I-FGF-2 was recovered by washing each well twice with 200 μl of 2% SDS in water. Levels of ^125I-FGF-2 were measured in a gamma counter.

[3] = system: FGF2MAE3F2T cells; assay: Proliferation of FGF2MAE3F2T clones over-expressing PTX3; format: cell-based, murine; settings: clones transfected with human PTX3 full length cDNA (pLXSH) vs parental cells, 0.4% FCS
Procedure: (§2) Murine endothelial cells overexpressing FGF-2, named FGF2MAE3F2T (Gualandris et al. 1996, Cell Growth Diff. 7:147-60) were transfected with human PTX3 full length cDNA subcloned in the commercial expression vector pLXSH (Clontech).
(§3) In vitro studies on the transfected cell lines obtained were, performed to study the effect of PTX3 over-expression on FGF-2-dependent proliferation of FGF2MAE3F2T cells and their invasive behaviour on three-dimensional fibrin gels.
After 24 h at 37° C., adherent cells were washed twice with DMEM without FCS and incubated for different period of time at 37° C. in DMEM containing 0.4% FCS. At the end of incubations cells were trypsinized and counted in a Burker chamber.

[4] = system: GM 7373 cells; assay: Effect of PTX3 on proliferation induced by other mitogens (FCS, DAG, TPA, EGF, VEGF); format: cell-based, bovine; settings: 10% FCS, 5 μg/ml DAG, 10 ng/ml TPA, 30 ng/ml EGF or 30 ng/ml VEGF
Procedure: GM 7373 cells were seeded at 75,000 cells/cm^2 in 48-well plates in Eagle MEM containing 10% FCS. After 24 h at 37° C. adherent cells were washed twice with Eagle's MEM without FCS and subsequently incubated for 24 h at 37° C. in Eagle's MEM containing 0.4% FCS in the absence or in the presence of FGF-2 (10 ng/ml) and increasing concentrations of PTX3. At the end of incubation cells were trypsinized and counted. In a different set of experiments GM 7373 cells were treated as described above in the presence of different mitogenic stimuli: 10% FCS; 5 μg/ml dyacyl-glycerol (DAG); 10 ng/ml phorbol ester (TPA) 30 ng/ml epidermal growth factor (EGF) or 30 ng/ml vascular endothelial growth factor (VEGF). Results reported in FIG. 7 shown that PTX3 inhibits the mitogenic activity exerted on endothelial cells by FGF-2 in a dose-dependent manner with an ID50 equal to 30 nM. This value is similar to the Kd calculated for the interaction FGF-2-PTX3.

[5] = system: low affinity receptors (HSPGs) on GM7373 cells; assay: Effect of PTX3 on 125I-FGF-2 binding to low affinity receptors on endothelial cells; format: cell-based, bovine; settings: 125I-FGF-2 10 ng/ml, 2 h at 4° C., increasing concentrations of PTX3
Procedure: (§4) Transformed foetal bovine aortic endothelial cells GM7373 were seeded at 80,000 cells/cm^2 in 24-well dishes in Eagle's minimal essential medium (Eagle's MEM) containing 10% FCS. After 24 h at 37° C. adherent cells were washed twice with Eagle's MEM without FCS and subsequently incubated for 2 h at 4° C. with ^125I-FGF-2 (10 ng/ml) in Eagle's MEM containing 0.15% gelatine and 20 mM HEPES pH 7.5 in the absence or in the presence of increasing concentrations of PTX3. At the end of incubation the amount of ^125I-FGF-2 bound to low (HSPGs) and high affinity receptors (FGFR) was evaluated as described by Moscatelli, 1987 J. Cell. Physiol. 131:123-30. Briefly cells were rinsed twice with 2 M NaCl in 20 mM HEPES buffer (pH 7.5) to remove ^125I-FGF-2 bound to low-affinity binding sites and twice with 2 M NaCl in 20 mM sodium acetate (pH 4.0) to remove ^125I-FGF-2 bound to high-affinity binding sites. Non-specific binding was measured in the presence of a 100-fold molar excess of unlabeled FGF-2 and subtracted from all the values.

[6] = target: T2, interaction between 125I-FGF-2 and plastic immobilised PTX3 (Homo sapiens, UniProt P09038+P26022); assay: 125I-FGF-2 binding to plastic immobilised PTX3 in the presence of an excess of competitor; settings: excess of competitor: FGF-2 or Cytocrome C 100 nM, soluble PTX3 300 nM
T2 construct: made in house
T2 sequence (P09038 134-288): as above
T2 sequence (P26022 18-381): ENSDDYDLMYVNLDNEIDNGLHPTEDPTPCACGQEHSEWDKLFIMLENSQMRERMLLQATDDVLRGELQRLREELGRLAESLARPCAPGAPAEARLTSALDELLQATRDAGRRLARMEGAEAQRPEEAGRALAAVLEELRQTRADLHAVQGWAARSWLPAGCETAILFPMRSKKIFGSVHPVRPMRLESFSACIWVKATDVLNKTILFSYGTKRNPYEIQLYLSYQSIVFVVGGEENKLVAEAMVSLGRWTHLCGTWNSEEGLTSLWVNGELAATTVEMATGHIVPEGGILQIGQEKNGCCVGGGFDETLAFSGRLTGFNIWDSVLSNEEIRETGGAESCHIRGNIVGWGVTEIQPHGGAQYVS
Procedure: as §1
In a second set of experiments the binding of ^125I-FGF-2 to plastic immobilised PTX3 has been tested in the presence of an excess of both native or heat denatured cold FGF-2 (100 nM), in the presence of similar Cytocrome C concentrations or in the presence of an excess of soluble PTX3 (300 nM).

[7] = system: neovascularization induced in vivo by FGF-2; assay: Chick embryo chorioallantoic membrane (CAM) assay, neovascularization induced by FGF-2; settings: gelatin sponge, FGF-2 500 ng/sponge, PTX3 5 ug/sponge, scored after 4 days
Procedure: The antiangiogenic potential of PTX3 was evaluated in vivo in the chick embryo chorioallantoic membrane (CAM) assay. Briefly, a window was opened in the egg shell of 3 day-old fertilized chicken eggs. At day 8, gelatin sponges were implanted on the CAMs and adsorbed with 10 ul of PBS alone or containing FGF-2 (at 500 ng/sponge) in the absence or in the presence of PTX3 (5 ug/sponge) (5-6 embryos per group).

[8] = system: FGF2MAE3F2T cells; assay: Invasive behaviour of PTX3 over-expressing FGF2MAE3F2T clones on three-dimensional fibrin gels; format: cell-based, murine; settings: PTX3 over-expressing clones (cDNA transfection) vs parental cells, after 2 days, image analysis
Source text: as §2, §3
To evaluate the invasive behaviour of FGF2MAE3F2T clones over-expressing PTX3 on three-dimensional fibrin gels, cell aggregates were prepared on agarose-coated plates exactly as described (Gualandris et al. 1996, Cell Growth Diff. 7:147-60). These aggregates were seeded onto fibrin-coated 48 well-plates. Immediately after seeding, 250 µl of calcium-free medium containing fibrinogen (2.5 mg/ml) and thrombin (250 mU/ml) were added to each well and allowed to gel for 5 min at 37° C. Then, […] of culture medium were added on the top of the gel. In all the, experiments, the fibrinolytic inhibitor trasylol was added to the gel and to the culture medium at 200 KIU/ml to prevent the dissolution of the substrate. Formation of radially growing cell sprouts was evaluated after 2 days by computerized image analysis.

[9] = system: high affinity receptors (FGFR) on GM7373 cells; assay: Effect of PTX3 on 125I-FGF-2 binding to high affinity receptors on endothelial cells; format: cell-based, bovine; settings: 125I-FGF-2 10 ng/ml, 2 h at 4° C., increasing concentrations of PTX3
Procedure: as §4

[10] = target: T1, FGF-2; assay: Capacity of PTX3 to bind FGF in solution (Superose 12 size exclusion chromatography, dot-blot); format: binding; settings: FGF-2 pre-incubated with PTX3 10 min at 4° C., Superose 12 column
Procedure: This experiment has been performed in order to evaluate PTX3 binding to FGF-2. PTX3 has been produced as described by Bottazzi et al., 1997, J. Biol. Chem. 272:32817-32823. Human recombinant FGF-2 has been produced as described by Isacchi A. et al., Proc. Natl. Acad. Sci. U.S.A. (1991), 88:2628-32. When necessary, FGF-2 has been labelled with ^125I following the method described by Isacchi et al. (see below).
100 μl of PBS containing 1 μg of FGF-2, (or alternatively 1 μg of PTX3) were chromatographed on a size exclusion fast protein liquid chromatography Superose 12 column (Pharmacia): this column is able to separate proteins depending on their molecular weight. The column was eluted with PBS at a flow rate equal to 1 ml/minute and 1 ml fractions were collected and analyzed by dot, blot with specific antibodies for the two proteins. In order to evaluate PTX3 binding to FGF-2 the two proteins ([…] and 1 μg, respectively), were mixed in 100 μl PBS and incubated at 4° C. for 10 min. before loading onto the column. Fractions were collected and analysed by dot-blot with anti FGF-2 specific antibodies. […] In the same conditions PTX3 (450.000 D) is eluted with the void volume of the column (7 ml.) When FGF-2 pre-incubated with PTX3 for.

[11] = target: T1, FGF-2; assay: Dissociation constant (Kd) of FGF-2/PTX3 interaction, Scatchard plot; format: binding; settings: increasing doses of 125I-FGF-2 on plastic immobilised PTX3, Scatchard plot
Procedure: With this experiment the dissociation constant (Kd) FGF-2/PTX3 interaction has been determined. For this purpose increasing doses of ^125I-FGF-2 were incubated with plastic immobilised PTX3 and binding results were analysed by Scatchard plot. […] This affinity is similar to the affinity previously calculated for the interaction of PTX3 with its physiological ligand C1q.

[12] = target: T1, FGF-2; assay: Capacity of biotinylated PTX3 to bind plastic immobilised FGF-2; format: binding; settings: ELISA, streptavidin HRP, 405 nm
Procedure: 100 μl of NaHCO3 pH 9.6 containing 500 ng of FGF-2 or of the complement component C1q were incubated 18 h at 4° C. in 96 wells plastic plates. At the end of incubation wells were washed 3 times with PBS and subsequently incubated 2 h at room temperature with 200 μl of PBS containing 1 mg/ml of Bovine Serum Albumin (BSA). At the end of incubation wells were washed again 3 times with PBS and incubated with 30 ng/ml of ^125I-FGF-2 in presence of increasing amounts of biotinylated PTX3 in 100 μl of PBS (2 h at room temperature). Alternatively wells were adsorbed with increasing doses of FGF-2 or C1q and incubated with 100 ng/ml of biotinylated PTX3 in 100 μl of PBS. After this incubation wells were washed 3 times with PBS and incubated 1 h at room temperature with 100 μl of streptavidin HRP conjugate ( 1/2000). Reaction was developed by adding the chromogen microwell peroxidase substrate system ABTS (Kirkegaard & Perry Laboratories). Plates were read in an automatic ELISA reader at 405 nm.

In the case of Cc1ccc(C(=O)Nc2ccc(S(=O)(=O)O)c3cc(S(=O)(=O)O)cc(S(=O)(=O)O)c23)cc1NC(=O)c1cccc(NC(=O)Nc2cccc(C(=O)Nc3cc(C(=O)Nc4ccc(S(=O)(=O)O)c5cc(S(=O)(=O)O)cc(S(=O)(=O)O)c45)ccc3C)c2)c1 [suramin, reference compound], the “inhibition of FGF-2 dependent proliferation of MAE3F2T cells” value [1] is reported as “in a manner similar to that exerted by anti FGF-2 antibodies and suramin”.

In the case of “CRP: short pentraxin homologous to PTX3, used as comparison protein”, the “binding of 125I-FGF-2 to plastic immobilised protein” value [2] is reported as “reacts poorly” and the “binding of 125I-FGF-2 to plastic immobilised protein” value ([2]; listed as C-reactive protein) is reported as “does not bind FGF-2”.

“PTX3: long pentraxin PTX3; preferred is human PTX3, sequence described in WO99/32516; produced as by Bottazzi et al. 1997” was tested, and the “effect of PTX3 over-expression on FGF2MAE3F2T cells proliferation” value [3] was “inhibits FGF2MAE3F2T cells proliferation”, the “inhibitory activity when other mitogens are used to induce cellular proliferation” value [4] was “not detectable” and the “inhibition of FGF-2 binding to low-affinity receptors on endothelial cells” value [5] was “able to inhibit in a dose-dependent manner”. The “inhibition of the interaction between 125I-FGF-2 and plastic immobilised PTX3” value [6] was “inhibited the interaction”, the “effect on neovascularization induced in vivo by FGF-2 (angiogenic response score 0-4+)” value [7] was “able to block the neovascularization” and the “binding of 125I-FGF-2 to plastic immobilised protein” value [2] was “FGF-2 binds plastic immobilised PTX3”. For the same compound, the “invasive capacity on fibrin gels (radially growing cell sprouts)” value [8] was “significantly lower”, the “inhibition of FGF-2 binding to high-affinity receptors on endothelial cells” value [9] was “able to inhibit in a dose-dependent manner” and the “inhibition of FGF-2 dependent proliferation of MAE3F2T cells” value [1] was “inhibiting their FGF-2 dependent proliferation”. For the same compound, the “binding of PTX3 to FGF-2 in solution (change of FGF-2 chromatographic behaviour)” value [10] was “FGF-2 was eluted from the column with a retention volume equal to PTX3 alone” and the Kd [11] was 8 to 16 nM.

In the case of “biotinylated PTX3: PTX3 labelled with biotin for the ELISA binding test”, the “binding of biotinylated PTX3 to plastic immobilised FGF-2” value [12] is reported as “FGF-2 immobilised on plastic wells is able to bind biotinylated PTX3”.

With “cold FGF-2: human recombinant growth factor FGF-2, unlabelled, used as competitor” the “inhibition of the interaction between 125I-FGF-2 and plastic immobilised PTX3” value [6] was “inhibited the interaction”.

In the case of “heat-inactivated FGF-2: heat denatured unlabelled FGF-2 used as competitor”, the “inhibition of the interaction between 125I-FGF-2 and plastic immobilised PTX3” value [6] is reported as “not able to bind PTX3”.

— patent US7858577B2, “Use of the long pentraxin PTX3 for the treatment of diseases caused by an altered activation of the growth factor FGF-2” (Sigma-Tau Industrie Farmaceutiche Riunite S.p.A., priority 2000, dated 2010)
